Consider one protein from PMC9109717.

Substrate in the data set: Nc1ncnc2c1ncn2[C@@H]1O[C@H](CO)[C@H]2OP(=O)(O)O[C@H]21
Nature of the data set: purified protein. The format is biochemical, Thermobifida fusca. The conditions noted are these: pH 7.5.

B1: (Thermobifida fusca YX) (protein)
chain: MPEHDSTDDKHGIPPLDLRFWAKERGLRGKTYPLVCHSLDAAAAALVLWNEYLSPGLRDTIASSMETDEEHAGHCIAFWAGLHDIGKLTREFQQQIAIDLSAYPGEELSGEQRSHAAATGKWLPFALPSLGYPNGGLVTGLVAQMLGGHHGTFHPHPSFQSRNPLAEFGFSSPHWEKQRHALLHAVFDATGRPTPPDMLDGPTASVVCGLVILADWLVSQEDFLLERLTSLPADGSASALRAHFETSLRRIPSLLDAAGLRPITVPPATFTESFPHLSKPNGLQASLAKHLPCLCTGPGLVLITAPMGEGKTEAAYHVADLLGKATGRPGRFLALPTMATADQMHTRLKEYARYRVENTDLPRSSTLALLHSMAWLNPDYAPADLPGVSKVLSNLGHRDPFAATDWLMGRKRGLLAPWAVGTIDQALMAVLRAKHNALRLFGLAGKVVVVDEAHAVDPYMQVLLEQLLRWLGTLDVPVVLLSATLHHSIANSLVKAYLEGARGRRWNRSEPQPVSEVSYPGWLHVDARIGKVTRSSDVDPLPIATTPRKPLEVRLVDVPVKEGALNRSTVLAKELTPLVKQGGCAAIICTTVAEAQGVYDLLSQWFATLGEDAPDLYLLHSRFPNRQRTEITATIVDLFGKEGAQSGRRPTRGAVLVATQVVEQSLDLDVDLMISDLAPVSLLLQRAGRCWRHEHLGIINRPQWAKQPELVVLTPEQNGDADRAPWFPRSWTSVYPLALLQRTYTLLRRRNGAPVQIPEDVQQLVDDVYDDDSLAEDLEADMERMGEELAQRGLARNAVIPDPDDAEDNLNGLTEFSFDVDEHVLATRFGAGSVRVLCYYVDTAGNRWLDPECTVEFPEQGTGREGRFTMADCRDLVARTIPVRMGPWASQLTEDNHPPEAWRESFYLRDLVLIPQRVTDEGAVLPTETGGREWLLDPCKGLIF
With B1, the Km is reported as 27 (±6) mM.
